In patent publication US20150315275A1:

Tests used:
[1] = target: human B7-H4 expressed on cells (human) (UniProt Q7Z7D3); experiment: saturation binding, flow cytometry on 624mel/B7-H4 cells; negative control used as background
[2] = target: human B7-H4 expressed on cells (human) (UniProt Q7Z7D3); experiment: flow cytometry on 624mel/B7-H4 cells, negative control antibody; signal subtracted as background from all other points

Sequence of human B7-H4 expressed on cells (human) (Q7Z7D3 other isoform, or with tags, fused parts or gaps limits assumed): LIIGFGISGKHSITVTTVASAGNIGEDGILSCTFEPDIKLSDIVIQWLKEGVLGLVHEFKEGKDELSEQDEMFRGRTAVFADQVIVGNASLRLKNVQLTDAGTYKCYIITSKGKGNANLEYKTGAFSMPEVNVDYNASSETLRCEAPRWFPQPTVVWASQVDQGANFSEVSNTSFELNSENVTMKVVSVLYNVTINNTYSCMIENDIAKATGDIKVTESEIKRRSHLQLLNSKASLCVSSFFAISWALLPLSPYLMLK

average signal (MFI) [1]: 245 MFI
MFI (average background signal) [2]: 245 MFI
Substance: negative control antibody (anti-PD-1 antibody)
